Read-outs that look alike come from different tables or passages of the source.

For one data set, the system named is MOVCAR 7 SP cells. In words: MTT proliferation assay, MOVCAR 7 SP cells. The data set is classed as cell-based, mouse. To be noted: for inhibition at 0.004 µM: Mus musculus, 4 nM drug, compared with vehicle-treated controls, read-out: inhibition (MTT growth inhibition). Here is the method:
(§1) MTT assay was used to assess proliferation inhibition. MOVCAR 7 and 4306 cells were harvested, sorted for SPs and NSPs, and plated in the inner wells of 96-well plates at 1,000 cells per well in 200 μl of medium per well. […] At day 5 or 7 of incubation, cell viability was quantified by measuring mitochondrial activity (38) on an ELISA plate reader at an absorbance of 550 nm to generate an OD proportional to the relative abundance of live cells in a given well.
(§2) Statistical Analysis. In MTT assays, MIS-, doxorubicin-, and paclitaxel-treated and untreated samples were analyzed by using the univariant two-tailed Student t test, with P ≦0.05conferring statistical significance. All experiments were performed in triplicate. In ovarian somatic stem cell studies, all p-values were calculated with the use of two-tailed student's t-test. Differences with p-values less than 0.05 were considered significant.

The test system of a further data set is MOVCAR 7 NSP cells. In words: MTT proliferation assay, MOVCAR 7 NSP cells. The data set is classed as cell-based, mouse. To be noted: for inhibition at 0.004 µM: Mus musculus, read-out: inhibition (MTT growth inhibition). Here is the method: as §1, §2
The test system of the next data set is MOVCAR 7 cells. Nature of the data set: Hoechst 33342 side population flow cytometry with verapamil, MOVCAR 7. Format: cell-based, mouse. Particulars: MOVCAR 7, verapamil 25-50 μg/ml, Hoechst 33342 flow cytometry. How it is done: (§3) Flow cytometry was performed in the Department of Pathology and Center for Regenerative Medicine Flow Cytometry Laboratory according to their published protocols (36). Mouse and human ovarian cancer SP sorting and immunophenotyping were performed as described in Supporting Methods, which is published as supporting information on the PNAS web site.
(§4) SP cells were identified and electronically gated on a Digital Vantage cell sorter (Becton Dickinson) after excitation of the Hoechst dye with 150 mW of 350 nm UV light. SP fluorescence emissions were directed toward a 610-nm dichroic filter and captured simultaneously through both a blue (450-nm) band-pass and a red (675-nm) long-pass filter on a linearly amplified fluorescence scale.

Another data set has as its system 4306 cells. In words: Hoechst 33342 side population flow cytometry with verapamil, 4306. Format: cell-based, mouse. Particulars: 4306, verapamil 25-50 μg/ml, Hoechst 33342 flow cytometry. How it is done:
as §3, §4

In a further data set the target is T1, BCRP1 transporter (Homo sapiens, UniProt Q9UNQ0).
T1 sequence (Q9UNQ0 1-655): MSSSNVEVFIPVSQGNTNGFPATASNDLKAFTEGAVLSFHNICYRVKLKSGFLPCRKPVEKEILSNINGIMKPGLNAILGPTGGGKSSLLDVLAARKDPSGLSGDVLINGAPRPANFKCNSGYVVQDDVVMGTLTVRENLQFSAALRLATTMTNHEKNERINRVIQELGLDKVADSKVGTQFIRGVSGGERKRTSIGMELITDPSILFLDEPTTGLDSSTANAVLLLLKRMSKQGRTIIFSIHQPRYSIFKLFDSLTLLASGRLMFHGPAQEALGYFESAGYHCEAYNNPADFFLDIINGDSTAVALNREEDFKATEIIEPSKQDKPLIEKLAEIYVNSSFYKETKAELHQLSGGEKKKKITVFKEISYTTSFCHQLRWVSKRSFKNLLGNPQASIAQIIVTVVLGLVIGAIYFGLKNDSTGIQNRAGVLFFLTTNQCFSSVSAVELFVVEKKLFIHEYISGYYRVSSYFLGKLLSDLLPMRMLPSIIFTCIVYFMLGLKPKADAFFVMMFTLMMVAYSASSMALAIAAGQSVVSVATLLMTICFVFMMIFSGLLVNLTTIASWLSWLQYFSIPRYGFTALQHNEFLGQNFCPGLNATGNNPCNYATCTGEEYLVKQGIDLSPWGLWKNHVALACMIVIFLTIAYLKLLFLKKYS
To be noted: reference 23; cited from earlier work.

The test system of another data set is 4306 SP cells. Nature of the data set: MTT proliferation assay, 4306 SP cells. The data set is classed as cell-based, mouse. How it is done: as §1, §2
The next data set relates to MOVCAR 8 cells. To be noted: references 25, 35; cited from earlier work.
In data set [1] the test system is MOVCAR 7. To be noted: in vitro, reference 25; cited from earlier work.
The test system of data set [2] is human anchorage-independent Mullerian tumors. Particulars: soft agarose, reference 34; cited from earlier work.
The test system of the next data set is OVCAR 8 cells. To be noted: references 25, 35; cited from earlier work.
Data set [3] can be described thus: Organ culture bioassay for MIS. To be noted: purified recombinant human MIS. How it is done:
The human MIS gene was transfected into CHO cells, amplified, purified, and maintained in a dedicated facility in the Pediatric Surgical Research Laboratories for use in this study as described in ref.39. MIS levels were measured by using human MIS-specific ELISA (40). MIS was purified by a combination of lectin affinity chromatography and FPLC anion-exchange chromatography (39).

Data set [4] has as its system MOVCAR 7. To be noted: in vivo, reference 25; cited from earlier work.
Setting [5] is: 4 nM drug, versus vehicle-treated controls.

On to `CC(=O)O[C@H]1C(=O)[C@@]2(C)[C@H]([C@H](OC(=O)c3ccccc3)[C@]3(O)C[C@H](OC(=O)[C@H](O)[C@@H](NC(=O)c4ccccc4)c4ccccc4)C(C)=C1C3(C)C)[C@]1(OC(C)=O)CO[C@@H]1C[C@@H]2O` [paclitaxel], for which, in the data set with MOVCAR 7 SP cells (MOVCAR 7 SP cells), the inhibition at 0.004 µM was 85%. Further, in the data set on MOVCAR 7 NSP cells (setting [5]), the “inhibition (MTT growth inhibition)” value came to 88% and the inhibition at 0.004 µM was 83%.
For the molecule `COc1ccc(CCN(C)CCCC(C#N)(c2ccc(OC)c(OC)c2)C(C)C)cc1OC` (stereo not drawn) [Verapamil, verapamil], the “elimination of the SP” value in the data set with MOVCAR 7 cells and in the data set with 4306 cells was “effectively eliminated the SP” throughout.
For `COc1cccc2c1C(=O)c1c(O)c3c(c(O)c1C2=O)C[C@@](O)(C(=O)CO)C[C@@H]3O[C@H]1C[C@H](N)[C@H](O)[C@H](C)O1` [doxorubicin], on BCRP1 transporter, the “substrate of the BCRP1 transporter” value was “is a substrate”. The inhibition at 0.004 µM was 30% in the data set on MOVCAR 7 SP cells (MOVCAR 7 SP cells) and 81% in the data set on MOVCAR 7 NSP cells (setting [5]).

B1: MIS: Recombinant human Mullerian Inhibiting Substance protein (SEQ ID NO: 16), produced in CHO cells and purified (protein, listed as Homo sapiens)
chain: MRDLPLTSLALVLSALGALLGTEALRAEEPAVGTSGLIFREDLDWPPGSPQEPLCLVALGGDSNGSSSPLRVVGALSAYEQAFLGAVQRARWGPRDLATFGVCNTGDRQAALPSLRRLGAWLRDPGGQRLVVLHLEEVTWEPTPSLRFQEPPPGGAGPPELALLVLYPGPGPEVTVTRAGLPGAQSLCPSRDTRYLVLAVDRPAGAWRGSGLALTLQPRGEDSRLSTARLQALLFGDDHRCFTRMTPALLLLPRSEPAPLPAHGQLDTVPFPPPRPSAELEESPPSADPFLETLTRLVRALRVPPARASAPRLALDPDALAGFPQGLVNLSDPAALERLLDGEEPLLLLLRPTAATTGDPAPLHDPTSAPWATALARRVAAELQAAAAELRSLPGLPPATAPLLARLLALCPGGPGGLGDPLRALLLLKALQGLRVEWRGRDPRGPGRAQRSAGATAADGPCALRELSVDLRAERSVLIPETYQANNCQGVCGWPQSDRNPRYGNHVVLLLKMQARGAALARPPCCVPTAYAGKLLISLSEERISAHHVPNMVATECGCR
Turning to B1, the “inhibition by MIS (MTT)” value with 4306 SP cells (4306 SP cells after sort 2, 10 μg/ml MIS) worked out at 60%; in the data set on 4306 SP cells (4306 SP cells after sort 3, 10 μg/ml MIS, not significant), 17%; in the data set with 4306 SP cells (4306 SP cells, first sort, 10 μg/ml MIS, vs. vehicle control), 37%; with MOVCAR 7 SP cells (MOVCAR 7 SP cells after sort 2, 10 μg/ml MIS), 93%; with MOVCAR 7 SP cells (MOVCAR 7 SP cells after sort 3, 10 μg/ml MIS) it was 94%; with MOVCAR 7 SP cells (MOVCAR 7 SP cells, first sort, 10 μg/ml MIS, versus vehicle), 86%. In addition, the “inhibition by MIS (MTT)” value with MOVCAR 7 NSP cells (first sort, 10 μg/ml MIS, versus vehicle) came out at 93%. In the data set with MOVCAR 8 cells, the “inhibition of MOVCAR 8 cells” value was “inhibits”. Moreover, the “inhibition of MOVCAR 7” value in the data set with MOVCAR 7 [1] and in the data set on MOVCAR 7 [4] was “inhibit” in each case. The “inhibition of anchorage-independent tumors” value in [2] is “inhibits”. For the same molecule, the “inhibition of OVCAR 8 cells” value in the data set with OVCAR 8 cells was “inhibits”. Also, the “regression in organ culture bioassay” value in data set [3] is on record as “causes regression”.

Source of the values: US9289492B2, “Collecting ovarian cancer stem cells from ovarian cancer cells” (The General Hospital Corporation, priority 2007, dated 2016).
